How the values were obtained:
Format in all cases: in vivo, mouse
Spf/ash mice [1] = test: PK/PD analysis of human OTC expression and urinary orotate in Spf/ash mice; details: 1 mg/kg and 3 mg/kg IV, 96 hours post dose
Method: Spf/ash mice received an IV injection with either PBS or certain lipid-formulated OTC-mRNAs from Table 5 at 1 mg/kg and 3 mg/kg using two different uridine chemistries (N1MPU and 5MeOU). WT mice were used as internal controls. Human-specific OTC levels were measured by MRM, and urinary orotate was determined in each sample and normalized to creatinine.

Spf/ash mice [2] = test: Urinary orotate levels in Spf/ash mice; details: 3 mg/kg IV, lipid-formulated
Method: Spf/ash mice received an IV injection with either PBS or lipid-formulated OTC-mRNA construct 1799.7 (5MeOU chemistry) at three different doses: 0.3 mg/kg, 1 mg/kg and 3 mg/kg. Urinary orotate levels were determined in untreated wild-type (WT) and both untreated and treated Spf/ash mice. A urinary orotate time course was performed in Spf/ash and WT mice, and urinary orotate levels were measured at each timepoint. The results can be seen in FIG. 12. Urinary orotate was normalized to creatinine, which is represented in the graph on the y-axis throughout the time course and served as a proof-of-concept of functional restoration of OTC activity post-injection.
Spf/ash mice received an IV injection with either PBS or lipid-formulated (as described in Example 1) OTC-mRNA at 1 mg/kg and 3 mg/kg. WT mice were included as an internal control. Urinary orotate levels were measured at 0, 1, 3, 7 and 14 days, and levels were normalized to creatinine (FIG. 16).

Spf/ash mice [3] = test: Survival of Spf/ash mice on a high protein diet; details: 0.3, 1 and 3 mg/kg IV on days 0, 7, 14, 21, 28
Method: Spf/ash mice received an IV injection with either PBS or lipid-formulated OTC-mRNA (1799.7) at three doses: 0.3 mg/kg, 1 mg/kg and 3 mg/kg. Mice were fed a high protein diet from day 0 to the end of the study. Treated animals were injected intravenously on days 0, 7, 14, 21 and 28 (indicated by the arrows in the chart in FIG. 17). Survival rates were determined every week. The plot in FIG. 17 summarizes the entire study timeline and the survival rates observed for the different groups.
The pharmacology of the OTC mRNA lipid formulations was investigated in studies that elucidated their efficacy and potential mechanism of action in a series of studies in the hemizygous male Spf/ash mouse model. […] The hypomorphic Spf/ash mouse shares similar biochemical features with OTCD patients, including elevated concentrations of urinary orotic acid (orotate), blood glutamine, and decreased concentrations of blood citrulline and arginine. The hemizygous male Spf/ash mice used in the pharmacology studies were derived by crossing B6EiC3Sn a/A-Otcspfash/J Het mice x B6EiC3SnF1/J mice as homozygous mice are not viable. […]
To study the effect of different ionizable cationic lipids on survival rate, Spf/ash mice received an IV injection with either PBS or one of three different lipid-formulated OTC-mRNA (1799.7) compositions. […] Survival rates were determined daily. […]

B1: 1799.7 (nucleic acid)
chain: ATGCTGTTCAACCTGCGCATCCTGCTGAACAACGCCGCCTTCCGCAACGGCCACAACTTCATGGTGCGCAACTTCCGCTGCGGCCAGCCCCTGCAGAACAAGGTGCAGCTGAAGGGCCGCGACCTGCTGACCCTGAAGAACTTCACCGGCGAGGAGATCAAGTACATGCTGTGGCTGAGCGCCGACCTGAAGTTCCGCATCAAGCAGAAGGGCGAGTACCTGCCCCTGCTGCAGGGCAAGAGCCTGGGCATGATCTTCGAGAAGCGCAGCACCCGCACCCGCCTGAGCACCGAGACAGGCTTCGCCCTGCTGGGCGGCCACCCCTGCTTCCTGACCACCCAGGACATCCACCTGGGCGTGAACGAGAGCCTGACCGACACCGCCCGCGTGCTGAGCAGCATGGCCGACGCCGTGCTGGCCCGCGTGTACAAGCAGAGCGACCTGGACACCCTGGCCAAGGAGGCCAGCATCCCCATCATCAACGGCCTGAGCGACCTGTACCACCCCATCCAGATCCTGGCCGACTACCTGACCCTGCAGGAGCACTACAGCAGCCTGAAGGGCCTGACCCTGAGCTGGATCGGCGACGGCAACAACATCCTGCACAGCATCATGATGAGCGCCGCCAAGTTCGGCATGCACCTGCAGGCCGCCACCCCCAAGGGCTACGAGCCCGACGCCAGCGTGACCAAGCTGGCCGAGCAGTACGCCAAGGAGAACGGCACCAAGCTGCTGCTGACCAACGACCCCCTGGAGGCCGCCCACGGCGGCAACGTGCTGATCACCGACACCTGGATCAGCATGGGCCAGGAGGAGGAGAAGAAGAAGCGCCTGCAGGCCTTCCAGGGCTACCAGGTGACCATGAAGACCGCCAAGGTGGCCGCCAGCGACTGGACCTTCCTGCACTGCCTGCCCCGCAAGCCCGAGGAGGTGGACGACGAGGTGTTCTACAGCCCCCGCAGCCTGGTGTTCCCCGAGGCCGAGAACCGCAAGTGGACCATCATGGCCGTGATGGTGAGCCTGCTGACCGACTACAGCCCCCAGCTGCAGAAGCCCAAGTTCTGA
modifications: 100% 5-methoxyuridine; lipid formulation
For B1, the “PK/PD correlation between hOTC protein expression and reduction of urinary orotate” value (Spf/ash mice [1]) was “high PK/PD correlation”, the “urinary orotate levels in treated Spf/ash mice vs WT mice” value (Spf/ash mice [2]) was “comparable to urinary orotate levels in WT mice” and the “duration of sustainable reduction of urinary orotate levels” value (Spf/ash mice [2]; normalized to creatinine) was “up to 14 days”. The “dose dependence of survival rate” value (Spf/ash mice [3]) was “dose-dependent” and the “survival during hyperammonemic crisis vs PBS” value (Spf/ash mice [3]) was “greater survival”.

From patent US12351834B2, “Compositions and methods for the treatment of ornithine transcarbamylase deficiency” (Arcturus Therapeutics, Inc., priority 2020, dated 2025)
